We go through one compound from patent publication US20240285784A1, “PEPTIDIC CONJUGATES OF SN38 USEFUL IN THE TREATMENT OF CANCER” (FUNDACIÓ INSTITUT DE RECERCA BIOMÈDICA (IRB BARCELONA), priority 2020, published 2024).

The subject of series [1] is athymic nude mice. Kind of series: In vivo tolerability, repeated intravenous injections (mouse weight). Particulars: 30 mg/kg i.v., 9 doses (days 1, 3, 5, 8, 10, 12, 29, 31, 33), weight until day 40. As for the experimental part: Upon the establishment of the MTD of SN38-linker A-MiniAp4 (Ia) at single i.v, we compared mean weight of mice treated with irinotecan at a clinically relevant multi-dose regimen, and SN38-linker A-MiniAp4 (Ia)at an equimolar dose. Briefly, mice were treated with either irinotecan 10 mg/kg (15 doses, on days 1-5, 8-12 and 29-33), by the intraperitoneal (i.p.) route, or with a SN38-linker A-MiniAp4 (Ia) 30 mg/kg (9 doses, on days 1, 3, 5, 8, 10, 12, 29, 31, 33), intravenously (i.v.). This regimen was considered the maximum feasible number of i.v. injections in mice. Control mice were treated with saline i.p. on days 1-5, 8-12 and 29-33.
Mouse weight was measured until day 40 and mean and SD values are represented for each group in FIG. 19. […] Weight of SN38-linker A-MiniAp4 (Ia) (Ia) treated mice was similar to that of mice treated with clinically relevant dosages of irinotecan.

Series [2] deals with athymic nude mice. Kind of series: Maximum tolerated dose, single intravenous injection. The note with it: 200 mg/kg single i.v., following 14 days, compared to untreated control animals. The format is in vivo. As for the experimental part: (§1) To evaluate the toxicity of irinotecan and SN38-linker A-MiniAp4 (Ia) (also named G2B-001) in athymic nude mice (10 week old; 8 mice per group) first the maximum tolerated dose (MTD) of SN38-linker A-MiniAp4 (Ia) was studied, by intravenous injection. Three mice were injected at dose levels 200, 500 and 1000 mg/kg, and observed for symptoms including death or weight lost during the following 14 days. The MTD was established at 200 mg/kg.

Assay in series [3]: as above
The note with it: mouse, in vivo; single intravenous injection, athymic nude mice, observed 14 days. The format is in vivo, mice. As for the experimental part:
as §1

A short description of series [4]: Stability in human plasma at 37° C. in vitro. The format is in vitro ADME. As for the experimental part: (§2) To assess the stability of the SN38-linker A-MiniAp4 (Ia) (example 7) in human, mouse, dog and rat plasma at 37° C., the compound was prepared at 200 μM in plasma samples in triplicates at each timepoint (0 h, 1 h, 4 h, 8 h and 24 h) for each species. Once the incubation was finalised, plasma proteins were immediately precipitated by adding chilly methanol (ratio 4:1, methanol:plasma) and tubes were shacked for few seconds (vortex). Samples were centrifuged at 3,000 rpm for 30 minutes at 4° C., supernatants were collected, transferred to the injection plate and injected to LC-MS system.
(§3) Compound recovery was determined by comparing the analyte response in a biological sample that is spiked with the analyte and processed, with the response in a methanol sample that is spiked with the analyte and processed.
(§4) Plasma stability assay was performed using blank plasma from untreated volunteers/animals. K2-EDTA was used as anticoagulant. Human blank plasma used was obtained from Hospital Sant Pau, mouse blank plasma used was obtained from Janvier, dog blank plasma used was obtained from Isoquimen and rat blank plasma used were obtained from Draconis Pharma.
To assess the stability of the G2B-001 lineal (Ib) (example 16) in human plasma at 37° C., the compound was prepared at 200 µM in plasma samples in triplicates at each timepoint (0 h, 0.5 h, 1 h, 2 h, 4 h, 8 h and 24 h). Once the incubation was finalised, plasma proteins were immediately precipitated by adding chilly methanol (ratio 4:1, methanol:plasma) and tubes were shacked for few seconds (vortex). Samples were centrifuged at 3,000 rpm for 30 minutes at 4° C., supernatants were collected, transferred to the injection plate and injected to LC-MS system. Compound recovery was determined by comparing the analyte response in a biological sample that is spiked with the analyte and processed, with the response in a methanol sample that is spiked with the analyte and processed.
Plasma stability assay was performed using blank plasma from untreated volunteers. K2-EDTA was used as anticoagulant. Human blank plasma used was obtained from Hospital Sant Pau.

A short description of series [5]: Stability in human serum at 37° C. in vitro. The format is in vitro ADME. The note with it: 200 μM in HBSS, 90% human serum. As for the experimental part: Regarding to the stability in human serum of the SN38-linker A-MiniAp4 (Ia) (example 7), it was incubated at a concentration of 200 μM in buffer HBSS at 37° C. in the presence of 90% human serum. At a range of times, 100 μL aliquots were collected to which 400 μL cold methanol was added in order to precipitate the serum proteins. The samples were centrifuged at 3000 rpm at 4° C. during 30 min, filtered and analyzed by UPLC-PDA and UPLC-MS to determine the degree of degradation of SN38-Linker A-MiniAp4 (Ia).

Series [6] is described as follows: Stability in rat plasma at 37° C. in vitro. Format: in vitro ADME. As for the experimental part: as §2, §3, §4
Series [7] in a line: Stability in dog plasma at 37° C. in vitro. The format is in vitro ADME. As for the experimental part: as §2, §3, §4
Series [8] in a line: Evaluation of solubility in water. The format is physicochemical. How it is done:
25 mg of SN38-linker A-MiniAp4 were dissolved in H2O, showing a completely transparent solution. This means that SN38-linker A-MiniAp4 has a solubility in water higher than 5 mg/mL, more than 400-fold the solubility in water described for SN38 (Mol. Pharmaceutics, 2016, 13, 379-390).

Series [9] is described as follows: Turbidimetric aqueous solubility. The note with it: for solubility at 2 hr: kinetic from dmso stock, 0.01 M phosphate buffered saline pH 7.4, 1% DMSO, 2 hr at 37° C., absorbance 620 nm. The format is physicochemical. As for the experimental part:
Each test compound concentration was then further diluted 1 in 100 in buffer (0.01 M phosphate buffered saline pH 7.4) so that the final DMSO concentration was 1% and the final test compound concentrations were 1, 3, 10, 30 and 100 μM. The experiment was performed at 37° C. and each concentration was incubated in 7 replicate wells. The plates were incubated for 2 hr at 37° C. before the absorbance was measured at 620 nm.

The nature of series [10]: Stability in mouse plasma at 37° C. in vitro. Format: in vitro ADME. How it is done:
as §2, §3, §4

Values after ≈ are worked out from the molar mass of the structure shown. Like-named read-outs stand apart in the source and are kept apart here. *1 amine or outer side, *2 acyl side, *3 side chain or, on linkers, in order; H or OH if unused. Where a SMILES comes first, the peptide text is derived from it. Bridges are numbered along the chain shown (N, C = ends). [ ]: non-standard residue; d: D form. The star is where a group is joined. X1 = CCc1c2c(nc3ccc(O)cc13)-c1cc3c(c(=O)n1C2)COC(=O)[C@@]3(CC)OC(=O)CCCCn1cc(CCCC(=O)NCCCOCCOCCOCCCN*)nn1; Suc = O=C(CCC(=O)[*:2])[*:1]; Dap = NC[C@H](N)C(=O)O

As to `CCc1c2c(nc3ccc(O)cc13)-c1cc3c(c(=O)n1C2)COC(=O)[C@@]3(CC)OC(=O)CCCCn1cc(CCCC(=O)NCCCOCCOCCOCCCNC(=O)CCC(=O)N[C@H]2CNC(=O)C[C@@H](C(N)=O)NC(=O)[C@H](CC(C)C)NC(=O)[C@H](C)NC(=O)[C@H]([C@@H](C)O)NC(=O)[C@H](CCC(=O)O)NC(=O)[C@@H]3CCCN3C(=O)[C@H](C)NC(=O)[C@H](CCCCN)NC2=O)nn1` [SN38-linker A-MiniAp4 (Ia)] ({X1-Suc}-[Dap]KAPETALD-NH2; lactam 1-9), the “mouse weight versus controls” value in the series with athymic nude mice [1] was “did not lose significant weight”. In the series on athymic nude mice [2], the “symptoms including death or weight lost at the MTD” value is “survived and did not show immediate symptoms of distress or significant weight lost”. Also, the MTD (usually the largest dose that counted as tolerated) at 14 days in series [3] is 200 mg/kg. Moreover, the half-life (as a rule, the time needed for the level to fall by half in the phase considered) at 200 μM in series [4] is above 1440 min; in [5], above 1440 min; in series [6], above 1440 min; in series [7] it was 480 to 1440 min; in series [10], 480 to 1440 min. For the same compound, the recovery at 24 h, 200 μM in [4] (24 h, read-out: % Recovery after 24 h in human plasma) worked out at 65.1%; in [6] (24 h, read-out: % Recovery after 24 h in rat plasma), 61.2%; in [7] (24 h, read-out: % Recovery after 24 h in dog plasma), 68.3%; in series [10] (24 h, read-out: % Recovery after 24 h in mouse plasma) it was 57.1%. Also, the “degree of degradation in human serum” value in series [5] (24 h) is “No significant degradation”. For the same compound, in series [8] (versus literature solubility of SN38 (Mol. Pharmaceutics, 2016, 13, 379-390)), the “solubility in water relative to the solubility in water described for SN38” value was “more than 400 fold”. Moreover, in series [8] (water, 25 mg dissolved in H2O, completely transparent solution), the solubility (usually how much of the substance goes into solution per volume) was above 5000 µg/mL. The solubility at 2 hr in series [9] (37 °C, pH 7.4, aqueous buffer, read-out: Turbidity aqueous solubility, Estimated precipitation range, Lower bond) was 30 µM (≈ 54.8 µg/mL); in series [9] (37 °C, pH 7.4, aqueous buffer, read-out: Turbidity aqueous solubility, Estimated precipitation range, Upper bond) it was 100 µM (≈ 183 µg/mL); in series [9] (aqueous buffer, read-out: Turbidity aqueous solubility, Estimated precipitation range, Calculated mid-range), 65 µM (≈ 119 µg/mL). In series [9] (up to 100 micromolar), the “solubility problems in turbidimetric solubility test” value is listed as “No solubility problems”.
